In paper PMC3711072 one finds reduction of CCR3 surface expression on human eosinophils (flow cytometry), 12.5 nM CCL5, 15 and 60 min data, which are given here for one substance.

The experiment addresses CCR3 (UniProt P51677).

Chain of CCL5 (P13501 24-91): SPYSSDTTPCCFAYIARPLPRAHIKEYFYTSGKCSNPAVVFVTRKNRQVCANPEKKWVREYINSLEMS
Chain of CCR3 (P51677 whole entry): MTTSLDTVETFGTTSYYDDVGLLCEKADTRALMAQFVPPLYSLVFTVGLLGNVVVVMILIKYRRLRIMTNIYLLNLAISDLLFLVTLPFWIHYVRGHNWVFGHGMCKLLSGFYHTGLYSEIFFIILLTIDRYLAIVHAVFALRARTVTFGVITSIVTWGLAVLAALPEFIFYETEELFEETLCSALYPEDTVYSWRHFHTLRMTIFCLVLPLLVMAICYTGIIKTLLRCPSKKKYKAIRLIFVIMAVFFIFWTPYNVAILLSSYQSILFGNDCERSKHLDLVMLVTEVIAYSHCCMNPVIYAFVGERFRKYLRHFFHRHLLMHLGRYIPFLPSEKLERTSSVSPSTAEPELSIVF

For the substance “CCL5 (from UniProt P13501 24-91) (ligand)”, the reduction of CCR3 surface expression on human eosinophils (flow cytometry), 12.5 nM CCL5, 15 and 60 min was 56.1%.
